One block for each binder: values may come before it.
Key:
Experiment in all cases: cell-based or functional assay
[1] = target: MMP13 (human, UniProt P45452 104-471, limits assumed)
[2] = target: T1, ADAMTS5 (human, UniProt Q9UNA0 262-622, limits assumed)
T1 sequence (looked up): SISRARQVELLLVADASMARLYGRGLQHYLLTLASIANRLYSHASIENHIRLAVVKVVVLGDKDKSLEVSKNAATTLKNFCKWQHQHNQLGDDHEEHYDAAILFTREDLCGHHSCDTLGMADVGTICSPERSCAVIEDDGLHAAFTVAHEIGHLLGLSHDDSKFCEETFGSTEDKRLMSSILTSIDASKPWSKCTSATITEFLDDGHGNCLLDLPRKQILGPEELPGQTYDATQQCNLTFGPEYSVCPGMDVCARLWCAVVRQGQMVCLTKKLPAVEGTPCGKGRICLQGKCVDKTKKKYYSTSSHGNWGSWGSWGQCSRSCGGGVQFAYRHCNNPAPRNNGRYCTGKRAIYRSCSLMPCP

[3] = target: T2, ADAMTS4 (human, UniProt O75173 213-685, limits assumed)
T2 sequence (looked up): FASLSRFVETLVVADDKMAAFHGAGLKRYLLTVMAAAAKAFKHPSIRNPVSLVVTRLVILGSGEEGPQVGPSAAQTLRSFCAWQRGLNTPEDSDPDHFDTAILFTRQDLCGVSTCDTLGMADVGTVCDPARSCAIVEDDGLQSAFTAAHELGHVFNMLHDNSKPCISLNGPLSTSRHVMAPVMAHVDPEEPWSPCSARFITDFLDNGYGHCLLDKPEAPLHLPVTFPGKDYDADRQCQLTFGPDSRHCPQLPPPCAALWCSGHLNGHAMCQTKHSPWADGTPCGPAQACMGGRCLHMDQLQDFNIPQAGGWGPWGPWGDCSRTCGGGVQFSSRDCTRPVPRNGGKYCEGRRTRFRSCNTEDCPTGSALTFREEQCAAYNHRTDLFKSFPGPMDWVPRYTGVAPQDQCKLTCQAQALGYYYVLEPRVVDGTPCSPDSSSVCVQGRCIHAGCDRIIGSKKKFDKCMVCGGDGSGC

Protease Inhibition (% of WT) [1]: 121 % of WT
Protease Inhibition (% of WT) [2]: 100 % of WT
Protease Inhibition (% of WT) [3]: 88 % of WT
B1: Variant A2M, bait region SEQ ID NO 120 (other)
chain: SVSGKPQYMVLVPSLLHTETTEKGCVLLSYLNETVTVSASLESVRGNRSLFTDLEAENDVLHCVAFAVPKSSSNEEVMFLTVQVKGPTQEFKKRTTVMVKNEDSLVFVQTDKSIYKPGQTVKFRVVSMDENFHPLNELIPLVYIQDPKGNRIAQWQSFQLEGGLKQFSFPLSSEPFQGSYKVVVQKKSGGRTEHPFTVEEFVLPKFEVQVTVPKIITILEEEMNVSVCGLYTYGKPVPGHVTVSICRKYSDASDCHGEDSQAFCEKFSGQLNSHGCFYQQVKTKVFQLKRKEYEMKLHTEAQIQEEGTVVELTGRQSSEITRTITKLSFVKVDSHFRQGIPFFGQVRLVDGKGVPIPNKVIFIRGNEANYYSNATTDEHGLVQFSINTTNVMGTSLTVRVNYKDRSPCYGYQWVSEEHEEAHHTAYLVFSPSKSFVHLEPMSHELPCGHTQTVQAHYILNGGTLLGLKKLSFYYLIMAKGGIVRTGTHGLLVKQEDMKGHFSISIPVKSDIAPVARLLIYAVLPTGDVIGDSAKYDVENCLANKVDLSFSPSQSLPASHAHLRVTAAPQSVCALRAVDQSVLLMKPDAELSASSVYNLLPEKDLTGFPGPLNDQDDEDCINRHNVYINGITYTPVSSTNEKDMYSFLEDMGLKAFTNSKIRKPKMCPQLEEEGVEEGKEEEGLGSGPAGAARGSELEGRGSPTEGEARGSKLRKYFPETWIWDLVVVNSAGVAEVGVTVPDTITEWKAGAFCLSEDAGLGISSTASLRAFQPFFVELTMPYSVIRGEAFTLKATVLNYLPKCIRVSVQLEASPAFLAVPVEKEQAPHCICANGRQTVSWAVTPKSLGNVNFTVSAEALESQELCGTEVPSVPEHGRKDTVIKPLLVEPEGLEKETTFNSLLCPSGGEVSEELSLKLPPNVVEESARASVSVLGDILGSAMQNTQNLLQMPYGCGEQNMVLFAPNIYVLDYLNETQQLTPEIKSKAIGYLNTGYQRQLNYKHYDGSYSTFGERYGRNQGNTWLTAFVLKTFAQARAYIFIDEAHITQALIWLSQRQKDNGCFRSSGSLLNNAIKGGVEDEVTLSAYITIALLEIPLTVTHPVVRNALFCLESAWKTAQEGDHGSHVYTKALLAYAFALAGNQDKRKEVLKSLNEEAVKKDNSVHWERPQKPKAPVGHFYEPQAPSAEVEMTSYVLLAYLTAQPAPTSEDLTSATNIVKWITKQQNAQGGFSSTQDTVVALHALSKYGAATFTRTGKAAQVTIQSSGTFSSKFQVDNNNRLLLQQVSLPELPGEYSMKVTGEGCVYLQTSLKYNILPEKEEFPFALGVQTLPQTCDEPKAHTSFQISLSVSYTGSRSASNMAIVDVKMVSGFIPLKPTVKMLERSNHVSRTEVSSNHVLIYLDKVSNQTLSLFFTVLQDVPVRDLKPAIVKVYDYYETDEFAIAEYNAPCSKDLGNADYKDDDDKGASHHHHHH

Protease Inhibition (% of WT) [1]: 115 % of WT
Protease Inhibition (% of WT) [2]: 68 % of WT
Protease Inhibition (% of WT) [3]: 64 % of WT
B2: Variant A2M, bait region SEQ ID NO 121 (other)
chain: SVSGKPQYMVLVPSLLHTETTEKGCVLLSYLNETVTVSASLESVRGNRSLFTDLEAENDVLHCVAFAVPKSSSNEEVMFLTVQVKGPTQEFKKRTTVMVKNEDSLVFVQTDKSIYKPGQTVKFRVVSMDENFHPLNELIPLVYIQDPKGNRIAQWQSFQLEGGLKQFSFPLSSEPFQGSYKVVVQKKSGGRTEHPFTVEEFVLPKFEVQVTVPKIITILEEEMNVSVCGLYTYGKPVPGHVTVSICRKYSDASDCHGEDSQAFCEKFSGQLNSHGCFYQQVKTKVFQLKRKEYEMKLHTEAQIQEEGTVVELTGRQSSEITRTITKLSFVKVDSHFRQGIPFFGQVRLVDGKGVPIPNKVIFIRGNEANYYSNATTDEHGLVQFSINTTNVMGTSLTVRVNYKDRSPCYGYQWVSEEHEEAHHTAYLVFSPSKSFVHLEPMSHELPCGHTQTVQAHYILNGGTLLGLKKLSFYYLIMAKGGIVRTGTHGLLVKQEDMKGHFSISIPVKSDIAPVARLLIYAVLPTGDVIGDSAKYDVENCLANKVDLSFSPSQSLPASHAHLRVTAAPQSVCALRAVDQSVLLMKPDAELSASSVYNLLPEKDLTGFPGPLNDQDDEDCINRHNVYINGITYTPVSSTNEKDMYSFLEDMGLKAFTNSKIRKPKMCPQLEPESSGEAIPMSIPTSEDLVVQIPENFFGVEAEGTGGERGVLGKLRKYFPETWIWDLVVVNSAGVAEVGVTVPDTITEWKAGAFCLSEDAGLGISSTASLRAFQPFFVELTMPYSVIRGEAFTLKATVLNYLPKCIRVSVQLEASPAFLAVPVEKEQAPHCICANGRQTVSWAVTPKSLGNVNFTVSAEALESQELCGTEVPSVPEHGRKDTVIKPLLVEPEGLEKETTFNSLLCPSGGEVSEELSLKLPPNVVEESARASVSVLGDILGSAMQNTQNLLQMPYGCGEQNMVLFAPNIYVLDYLNETQQLTPEIKSKAIGYLNTGYQRQLNYKHYDGSYSTFGERYGRNQGNTWLTAFVLKTFAQARAYIFIDEAHITQALIWLSQRQKDNGCFRSSGSLLNNAIKGGVEDEVTLSAYITIALLEIPLTVTHPVVRNALFCLESAWKTAQEGDHGSHVYTKALLAYAFALAGNQDKRKEVLKSLNEEAVKKDNSVHWERPQKPKAPVGHFYEPQAPSAEVEMTSYVLLAYLTAQPAPTSEDLTSATNIVKWITKQQNAQGGFSSTQDTVVALHALSKYGAATFTRTGKAAQVTIQSSGTFSSKFQVDNNNRLLLQQVSLPELPGEYSMKVTGEGCVYLQTSLKYNILPEKEEFPFALGVQTLPQTCDEPKAHTSFQISLSVSYTGSRSASNMAIVDVKMVSGFIPLKPTVKMLERSNHVSRTEVSSNHVLIYLDKVSNQTLSLFFTVLQDVPVRDLKPAIVKVYDYYETDEFAIAEYNAPCSKDLGNADYKDDDDKGASHHHHHH

Protease Inhibition (% of WT) [1]: 90 % of WT
Protease Inhibition (% of WT) [2]: 170 % of WT
Protease Inhibition (% of WT) [3]: 100 % of WT
B3: Variant A2M, bait region SEQ ID NO 119 (other)
chain: SVSGKPQYMVLVPSLLHTETTEKGCVLLSYLNETVTVSASLESVRGNRSLFTDLEAENDVLHCVAFAVPKSSSNEEVMFLTVQVKGPTQEFKKRTTVMVKNEDSLVFVQTDKSIYKPGQTVKFRVVSMDENFHPLNELIPLVYIQDPKGNRIAQWQSFQLEGGLKQFSFPLSSEPFQGSYKVVVQKKSGGRTEHPFTVEEFVLPKFEVQVTVPKIITILEEEMNVSVCGLYTYGKPVPGHVTVSICRKYSDASDCHGEDSQAFCEKFSGQLNSHGCFYQQVKTKVFQLKRKEYEMKLHTEAQIQEEGTVVELTGRQSSEITRTITKLSFVKVDSHFRQGIPFFGQVRLVDGKGVPIPNKVIFIRGNEANYYSNATTDEHGLVQFSINTTNVMGTSLTVRVNYKDRSPCYGYQWVSEEHEEAHHTAYLVFSPSKSFVHLEPMSHELPCGHTQTVQAHYILNGGTLLGLKKLSFYYLIMAKGGIVRTGTHGLLVKQEDMKGHFSISIPVKSDIAPVARLLIYAVLPTGDVIGDSAKYDVENCLANKVDLSFSPSQSLPASHAHLRVTAAPQSVCALRAVDQSVLLMKPDAELSASSVYNLLPEKDLTGFPGPLNDQDDEDCINRHNVYINGITYTPVSSTNEKDMYSFLEDMGLKAFTNSKIRKPKMCPQLELQQYEMHGPEGLRVGEAIPMSIPIPENFFGVKEEEGLGSKLRKYFPETWIWDLVVVNSAGVAEVGVTVPDTITEWKAGAFCLSEDAGLGISSTASLRAFQPFFVELTMPYSVIRGEAFTLKATVLNYLPKCIRVSVQLEASPAFLAVPVEKEQAPHCICANGRQTVSWAVTPKSLGNVNFTVSAEALESQELCGTEVPSVPEHGRKDTVIKPLLVEPEGLEKETTFNSLLCPSGGEVSEELSLKLPPNVVEESARASVSVLGDILGSAMQNTQNLLQMPYGCGEQNMVLFAPNIYVLDYLNETQQLTPEIKSKAIGYLNTGYQRQLNYKHYDGSYSTFGERYGRNQGNTWLTAFVLKTFAQARAYIFIDEAHITQALIWLSQRQKDNGCFRSSGSLLNNAIKGGVEDEVTLSAYITIALLEIPLTVTHPVVRNALFCLESAWKTAQEGDHGSHVYTKALLAYAFALAGNQDKRKEVLKSLNEEAVKKDNSVHWERPQKPKAPVGHFYEPQAPSAEVEMTSYVLLAYLTAQPAPTSEDLTSATNIVKWITKQQNAQGGFSSTQDTVVALHALSKYGAATFTRTGKAAQVTIQSSGTFSSKFQVDNNNRLLLQQVSLPELPGEYSMKVTGEGCVYLQTSLKYNILPEKEEFPFALGVQTLPQTCDEPKAHTSFQISLSVSYTGSRSASNMAIVDVKMVSGFIPLKPTVKMLERSNHVSRTEVSSNHVLIYLDKVSNQTLSLFFTVLQDVPVRDLKPAIVKVYDYYETDEFAIAEYNAPCSKDLGNADYKDDDDKGASHHHHHH

— patent US20230250154A1 (CYTONICS, published 2023)
